Measured values from publication PMC9292375, “Structural basis of an epitope tagging system derived from Haloarcula marismortui bacteriorhodopsin I D94N and its monoclonal antibody GD‐26” (The Febs Journal, 2021).
Several values for one entry are separate records, joined by “and”; a condition that tells them apart may be missing. Equal entries are not always repeated.

Tests used:
Experiment in all cases: ITC; synthetic peptide in the syringe titrated into GD-26 Fab or GD-26 IgG (10 μM) in the cell; 25 °C; 50 mM Tris, 150 mM NaCl, pH 7.5; one-set-of-sites model
Settings in all cases: both partners purified
[1] = molecular target: T1, TD peptide (GTGATPADD), peptide V from the C terminus of HmBRI D94N (Haloarcula marismortui HmBRI C terminus …)
T1 construct: nine residues at the C terminus of Haloarcula marismortui bacteriorhodopsin I (HmBRI); residue numbers 1-9 count on: the TD peptide; also called TD tag; wild-type TD peptide; source: synthetic peptide
T1 chain: GTGATPADD

TD peptide A7Q = molecular target: T2, TD peptide A7Q (A7Q (stands in the printed letters))
T2 construct: TD peptide (C terminus of HmBRI) with A7Q; numbers count on: the TD peptide; source: synthetic peptide
T2 chain: GTGATPQDD

TD peptide A7S = molecular target: T3, TD peptide A7S (A7S (stands in the printed letters))
T3 construct: TD peptide (C terminus of HmBRI) with A7S; numbers count on: the TD peptide; source: synthetic peptide
T3 chain: GTGATPSDD

TD peptide A7Y = molecular target: T4, TD peptide A7Y (A7Y (stands in the printed letters))
T4 construct: TD peptide (C terminus of HmBRI) with A7Y; numbers count on: the TD peptide; source: synthetic peptide
T4 chain: GTGATPYDD

TD peptide A7R = molecular target: T5, TD peptide A7R (A7R (stands in the printed letters))
T5 construct: TD peptide (C terminus of HmBRI) with A7R; numbers count on: the TD peptide; source: synthetic peptide
T5 chain: GTGATPRDD

TD peptide P6F = molecular target: T6, TD peptide P6F (P6F (stands in the printed letters))
T6 construct: TD peptide (C terminus of HmBRI) with P6F; numbers count on: the TD peptide; source: synthetic peptide
T6 chain: GTGATFADD

TD peptide P6A = molecular target: T7, TD peptide P6A (P6A (stands in the printed letters))
T7 construct: TD peptide (C terminus of HmBRI) with P6A; numbers count on: the TD peptide; source: synthetic peptide
T7 chain: GTGATAADD

TD peptide P6G = molecular target: T8, TD peptide P6G (P6G (stands in the printed letters))
T8 construct: TD peptide (C terminus of HmBRI) with P6G; numbers count on: the TD peptide; source: synthetic peptide
T8 chain: GTGATGADD

TD peptide G1M = molecular target: T9, TD peptide G1M (G1M (stands in the printed letters))
T9 construct: TD peptide (C terminus of HmBRI) with G1M; numbers count on: the TD peptide; source: synthetic peptide
T9 chain: MTGATPADD

[2] = molecular target: T10, TD peptide M1 (Met attached to the N terminus) (Haloarcula marismortui HmBRI C-terminal …)
T10 construct: TD peptide (C terminus of HmBRI) with one Met attached before Gly1; source: synthetic peptide
T10 chain: MGTGATPADD

[3] = molecular target: T1, TD peptide (GTGATPADD), peptide V from …
TD peptide D9N = molecular target: T11, TD peptide D9N (D9N (stands in the printed letters))
T11 construct: TD peptide (C terminus of HmBRI) with D9N; numbers count on: the TD peptide; source: synthetic peptide
T11 chain: GTGATPADN

[4] = molecular target: T12, TD peptide C1 (Asp9 removed) (Haloarcula marismortui (strain ATCC …))
T12 construct: TD peptide residues 1-8 (Asp9 removed); numbers count on: the TD peptide; source: synthetic peptide
T12 chain: GTGATPAD

[5] = molecular target: T13, TD peptide N2 (Gly1 and Thr2 deleted) (Haloarcula marismortui (strain ATCC …))
T13 construct: TD peptide residues 3-9 (Gly1 and Thr2 deleted); numbers count on: the TD peptide; source: synthetic peptide
T13 chain: GATPADD

B1: GD-26 Fab (antigen-binding fragment of monoclonal antibody GD-26) (Fab, V domains shown)
VH: QVQLRQSGPELVKPGASVKMSCRASGYTFTNYNIHWVRQRPGQGLEWIGWIYPVDGTTKYNEKFKDKTTLTSDKSSSTAYMSLSGLTSEDSAIYFCARGLDNWGQGTSVTVSS
VL: DVVLTQTPLSLSVTIGQPASISCRSSQRLLYSNGKTYLNWFQQRPGQAPKYLMFQVSKLGPGIPARFSGSGSETDFTLKISRVEAEDLGVYYCFQGTFFPHTFGGGTKLEMK
notes: Fab heavy chain of GD-26; whole chain in PDB 7DOH; light chain of GD-26; the Fab was secreted; source: Expi293F, transient co-transfection, secreted; purified (HisTrap Excel, Superdex 200 gel filtration)
For B1, the Kd [1] was 19.8 nM and 19.4 nM, the dH [1] was -13.4 kcal/mol and the “stoichiometry N” value [1] was 0.93 sites. For the same binder, the Kd (TD peptide A7Q) was 59.3 nM, the Kd (TD peptide A7S) was 72.7 nM and the Kd (TD peptide A7Y) was 73.4 nM. It also gave a Kd (TD peptide A7R) of 171 nM, a Kd (TD peptide P6F) of 78.2 nM and a Kd (TD peptide P6A) of 140 nM. It also gave a Kd (TD peptide P6G) of 892 nM, a Kd (TD peptide G1M) of 46.5 nM and a Kd [2] of 25.1 nM. It also gave a Kd [3] of 12 nM, a Kd (TD peptide D9N) of 132 nM and a Kd [4] of 273 nM. The Kd [5] was 548 nM.
